In publication PMC9427776, “TTYH family members form tetrameric complexes at the cell membrane” (Communications Biology, 2022):
Where “and” joins values, the source holds several entries; their conditions need not be identical. Identical values can stand only once.

Columns and labels:
[1] = molecular target: mTTYH3 ECD1-T4L-ECD2 (mouse | not stated) (UniProt Q6P5F7); assay: cross-linking; secreted protein from clarified insect cell medium, DSS at 0, 10, 50, 100, 200, 2000 uM; western blot
[2] = molecular target: the molecule itself; assay: native gel or EMSA; Blue-Native PAGE of HEK 293 lysates in 0.05% (mTTYH1) or 0.1% (mTTYH3) DDM, 50 mM NaCl, 20 mM Tris-HCl pH 7.5; anti-FLAG western blot
[3] = molecular target: the molecule itself; assay: cross-linking; in situ on adherent HEK 293 cells with membrane-impermeable BS3 (0, 10, 50, 100, 200, 2000 uM), 1 h at room temperature; lysis in 1% DDM; SDS-PAGE and anti-FLAG western blot
[4] = molecular target: the molecule itself; assay: SEC; FSEC of HEK 293 cells solubilised in 1% DDM, Superdex 200 Increase, 150 mM NaCl, 50 mM Tris-HCl pH 7.5, 1 mM DDM; EGFP fluorescence; also after 10 min at 20-80 C (FSEC-TS) or with 20 mM 2-ME, both of which shift the population toward dimers
[5] = molecular target: the molecule itself; assay: single-molecule subunit counting (photobleaching steps of EGFP, TIRFM); EGFP fusions at low density in the plasma membrane of living Xenopus laevis oocytes, room temperature; bleaching steps counted by hand, fit to a binomial distribution (p = 0.7)
[6] = molecular target: the molecule itself; assay: SEC-MALS; purified mTTYH1-GFP-8xHis, 50 uL at 1.18 mg/mL, Superdex 200 Increase, 20 mM Tris pH 7.5, 150 mM NaCl, 0.3 mM DDM; protein conjugate analysis

mTTYH3 ECD1-T4L-ECD2 (from UniProt Q6P5F7 107-209; Q6P5F7 260-386) (domain or fragment)
stoichiometry N [1]: 4

B1: FLAG-tagged mTTYH1 (natural protein, mouse, UniProt Q9D3A9 1-450, looked up)
chain: MGAPPGYRPSAWVHLLHQLPRADFQLRPVPSGFAPRDQEYQQALLLVAALAGLGLGLSLIFIAVYLIRFCCCRPPEPHGAKSPPPGGGCVTWSCIAALLVGCAGIGIGFYGNSETSDGVSQLSSALLHANHTLSTIDDVVLETVERLGEAVKTELTTLEEVLSVRMELVAATRGARRQAEAAAQYLQGLAFWQGVSLSPVQVAEDVTFVEEYRWLAYVLLLLLVLLVCLFTLLGLAKQSKWLVVVMTAMSLLVLVLSWGSMGLEAATAVGLSDFCSNPDTYVLNLTQEETGLSSDILSYYFLCNQAVSNPFQQRLTLSQRALASIHSQLQGLEREAIPQFSAAQKPLLSLEETLNVTERSFHQLVALLHCRSLHKDYGSALRGLCEDALEGLLFLMLFSLLSAGALATTLCSLPRAWALFPPSDDYDDTDDDDPFNPQESKRFVQWQSSI
notes: mouse Tweety homolog 1 (mTTYH1), intact protein; so the FLAG is probably C-terminal; also called mouse Tweety homolog 1; source: HEK 293 cells (HEK293T), transiently transfected; cross-linked on the cells or in DDM lysate
stoichiometry N [2]: 2
stoichiometry N [3]: 4

B2: mTTYH1-EGFP (HEK 293, pEGFP-N1) (natural protein, mouse, UniProt Q9D3A9 1-450, looked up)
chain: B1 chain
notes: mouse Tweety homolog 1 (mTTYH1), intact protein; also called EGFP-fused mTTYH1; source: HEK 293 cells, transiently transfected, detergent-solubilised lysate; not shown: EGFP, C-terminal, kept
stoichiometry N [4]: 4 and 2

B3: mTTYH1-EGFP (Xenopus oocytes, pGH19) (natural protein, mouse, UniProt Q9D3A9 1-450, looked up)
chain: B1 chain
notes: mouse Tweety homolog 1 (mTTYH1), intact protein; also called EGFP-fused mTTYH1; source: Xenopus laevis oocytes injected with about 1 ng cRNA, at the plasma membrane; not shown: EGFP, C-terminal, kept
stoichiometry N [5]: 4

B4: mTTYH1-GFP-8xHis (natural protein, mouse, UniProt Q9D3A9 1-450, looked up)
chain: B1 chain
modifications: N-glycosylated (HexNAc at Asn; sites not given)
notes: mouse Tweety homolog 1 (mTTYH1), intact protein; also called purified mTTYH1-GFP; intact mTTYH1-GFP; not shown: EGFP, C-terminal, kept; His8, C-terminal, kept
stoichiometry N [6]: 4 and 2

B5: mTTYH3-EGFP (HEK 293, pEGFP-N1) (natural protein, mouse, UniProt Q6P5F7 1-524, looked up)
chain: MAGVSYAAPWWVSLLHRLPHFDLRWEATSSQFRPEDADYQQALLLLGATALACLALDLLFLLFYSFWLCCRRRKTDEHLDADCCCTAWCVIITTLVCSAGIAVGFYGNGETSDGIHRATYSLRHANRTVAGVQDRVWDTAAALNRTAEPNLQSLERQLAGRQEPLRAVQRLQTLLGTLLGYTAAIPFWRNPGVSLEVLAEQVDLYDWYRWLGYLGLLLLDVIICLLVLVGLIRSSKGILVGVCLLGVLALVISWGALGLELAVSVGSSDFCVDPDTFVTKMVEEHSVLSGDILQYYLACSPRATNPFQQKLSGSHKALVEMQDVVAELLRNVPREHPATKDPLLRVQEVLNGTEVNLQHLTALVDCRSLHLDYVQALTGFCYDGVEGLIYLALFSFVTALMFSSIVCSIPHTWQQKRGPDDDGEEETAPGPRQAHDSLYRVHMPSLYSCGSSYGSEASIPAAAHTVSNAPVTEYMSQNANFQNPRCENTPLIGRESPPPSYTSSMRAKYLATSQPRPDSSGSGH
notes: mouse Tweety homolog 3 (mTTYH3), intact protein; also called EGFP-fused mTTYH3; mTTYH3-GFP; source: HEK 293 cells, transiently transfected, detergent-solubilised lysate; not shown: EGFP, C-terminal, kept
stoichiometry N [4]: 4 and 2

B6: FLAG-tagged mTTYH3 (natural protein, mouse, UniProt Q6P5F7 1-524, looked up)
chain: B5 chain
notes: mouse Tweety homolog 3 (mTTYH3), intact protein; so the FLAG is probably C-terminal; also called mouse Tweety homolog 3; source: HEK 293 cells (HEK293T), transiently transfected; cross-linked on the cells or in DDM lysate
stoichiometry N [2]: 2
stoichiometry N [3]: 4

B7: mTTYH3-EGFP (Xenopus oocytes, pGH19) (natural protein, mouse, UniProt Q6P5F7 1-524, looked up)
chain: B5 chain
notes: mouse Tweety homolog 3 (mTTYH3), intact protein; also called EGFP-fused mTTYH3; source: Xenopus laevis oocytes injected with about 1 ng cRNA, at the plasma membrane; not shown: EGFP, C-terminal, kept
stoichiometry N [5]: 4

B8: EGFP fusion of KCNH1 (natural protein, UniProt O95259 1-989, looked up)
chain: MTMAGGRRGLVAPQNTFLENIVRRSNDTNFVLGNAQIVDWPIVYSNDGFCKLSGYHRAEVMQKSSTCSFMYGELTDKDTIEKVRQTFENYEMNSFEILMYKKNRTPVWFFVKIAPIRNEQDKVVLFLCTFSDITAFKQPIEDDSCKGWGKFARLTRALTSSRGVLQQLAPSVQKGENVHKHSRLAEVLQLGSDILPQYKQEAPKTPPHIILHYCVFKTTWDWIILILTFYTAILVPYNVSFKTRQNNVAWLVVDSIVDVIFLVDIVLNFHTTFVGPAGEVISDPKLIRMNYLKTWFVIDLLSCLPYDVINAFENVDEVSAFMGDPGKIGFADQIPPPLEGRESQGISSLFSSLKVVRLLRLGRVARKLDHYIEYGAAVLVLLVCVFGLAAHWMACIWYSIGDYEIFDEDTKTIRNNSWLYQLAMDIGTPYQFNGSGSGKWEGGPSKNSVYISSLYFTMTSLTSVGFGNIAPSTDIEKIFAVAIMMIGSLLYATIFGNVTTIFQQMYANTNRYHEMLNSVRDFLKLYQVPKGLSERVMDYIVSTWSMSRGIDTEKVLQICPKDMRADICVHLNRKVFKEHPAFRLASDGCLRALAMEFQTVHCAPGDLIYHAGESVDSLCFVVSGSLEVIQDDEVVAILGKGDVFGDVFWKEATLAQSCANVRALTYCDLHVIKRDALQKVLEFYTAFSHSFSRNLILTYNLRKRIVFRKISDVKREEEERMKRKNEAPLILPPDHPVRRLFQRFRQQKEARLAAERGGRDLDDLDVEKGNVLTEHASANHSLVKASVVTVRESPATPVSFQAASTSGVPDHAKLQAPGSECLGPKGGGGDCAKRKSWARFKDACGKSEDWNKVSKAESMETLPERTKASGEATLKKTDSCDSGITKSDLRLDNVGEARSPQDRSPILAEVKHSFYPIPEQTLQATVLEVRHELKEDIKALNAKMTNIEKQLSEILRILTSRRSSQSPQELFEISRPQSPESERDIFGAS
notes: KCNH1, voltage-gated K+ channel; Positive control of the subunit counting; also called EGFP-fused KCNH1; source: Xenopus laevis oocytes injected with 1 ng cRNA, at the plasma membrane
stoichiometry N [5]: 4
